Patent US20240018502A1

biological target: plasma purified human complement protein C3 (human) (UniProt P01024); assay: cell-based or functional assay
Sequence (P01024 23-667, chain 1 of 2): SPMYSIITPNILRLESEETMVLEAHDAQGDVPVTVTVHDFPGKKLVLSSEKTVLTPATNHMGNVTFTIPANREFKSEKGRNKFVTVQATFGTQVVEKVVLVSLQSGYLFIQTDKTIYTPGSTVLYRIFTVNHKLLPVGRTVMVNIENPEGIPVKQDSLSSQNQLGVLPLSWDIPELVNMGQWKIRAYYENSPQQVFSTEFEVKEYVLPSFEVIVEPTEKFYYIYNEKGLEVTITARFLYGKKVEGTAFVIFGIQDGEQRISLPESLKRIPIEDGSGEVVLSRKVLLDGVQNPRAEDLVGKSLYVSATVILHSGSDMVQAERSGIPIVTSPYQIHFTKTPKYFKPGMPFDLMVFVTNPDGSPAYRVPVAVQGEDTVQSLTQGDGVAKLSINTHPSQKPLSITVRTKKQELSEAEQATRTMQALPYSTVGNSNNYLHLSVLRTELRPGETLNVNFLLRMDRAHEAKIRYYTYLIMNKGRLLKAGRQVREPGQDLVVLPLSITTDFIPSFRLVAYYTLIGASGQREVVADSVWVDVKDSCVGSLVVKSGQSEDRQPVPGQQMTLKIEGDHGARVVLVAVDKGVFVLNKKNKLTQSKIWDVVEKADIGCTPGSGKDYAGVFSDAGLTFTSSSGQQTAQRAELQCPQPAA
Sequence (P01024 672-1663, chain 2 of 2): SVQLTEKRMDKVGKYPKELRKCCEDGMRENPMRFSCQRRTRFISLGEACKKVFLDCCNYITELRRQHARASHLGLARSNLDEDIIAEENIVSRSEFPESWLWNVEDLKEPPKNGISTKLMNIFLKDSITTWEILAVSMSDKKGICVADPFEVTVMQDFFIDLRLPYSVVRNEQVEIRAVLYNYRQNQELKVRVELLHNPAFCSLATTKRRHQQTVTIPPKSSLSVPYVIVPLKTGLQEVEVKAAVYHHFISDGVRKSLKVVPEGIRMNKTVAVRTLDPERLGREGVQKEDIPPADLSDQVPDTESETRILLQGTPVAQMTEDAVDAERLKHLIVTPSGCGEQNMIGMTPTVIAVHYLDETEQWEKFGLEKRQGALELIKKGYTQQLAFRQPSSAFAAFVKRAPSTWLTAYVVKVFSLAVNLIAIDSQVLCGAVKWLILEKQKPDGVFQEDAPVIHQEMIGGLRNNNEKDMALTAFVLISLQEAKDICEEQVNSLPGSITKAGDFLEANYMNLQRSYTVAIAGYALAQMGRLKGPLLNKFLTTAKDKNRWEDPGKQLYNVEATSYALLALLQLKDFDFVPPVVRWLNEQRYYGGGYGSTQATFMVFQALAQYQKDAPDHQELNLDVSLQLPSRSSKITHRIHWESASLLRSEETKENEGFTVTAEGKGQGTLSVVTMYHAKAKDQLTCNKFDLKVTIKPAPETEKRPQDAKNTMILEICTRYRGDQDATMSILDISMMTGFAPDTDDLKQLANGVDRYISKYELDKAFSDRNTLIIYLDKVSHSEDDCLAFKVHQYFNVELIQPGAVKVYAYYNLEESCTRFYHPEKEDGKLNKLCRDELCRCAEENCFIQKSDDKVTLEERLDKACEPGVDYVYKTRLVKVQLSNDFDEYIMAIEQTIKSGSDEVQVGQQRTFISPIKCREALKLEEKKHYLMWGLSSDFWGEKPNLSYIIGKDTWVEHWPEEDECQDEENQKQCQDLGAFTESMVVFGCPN

EC50 of hC3 cleavage [nM]	Binder
153	MTSP-1 H40P/I41R/F99L/C122S/G151E/Q192G (enzyme) VVGGTDADEGEWPWQVSLHALGQGPRCGASLISPNWLVSAAHCYIDDRGFRYSDPTQWTAFLGLHDQSQRSAPGVQERRLKRIISHPFFNDFTLDYDIALLELEKPAEYSSMVRPISLPDASHVFPAGKAIWVTGWGHTQYGGTEALILQKGEIRVINQTTCENLLPQQITPRMMCVGFLSGGVDSCGGDSGGPLSSVEADGRIFQAGVVSWGDGCAQRNKPGVYTRLPLFRDWIKENTGV
137	MTSP-1 H40R/I41H/F97D/F99L/C122S/G151N/Q192H/D217K/K224A (enzyme) VVGGTDADEGEWPWQVSLHALGQGRHCGASLISPNWLVSAAHCYIDDRGFRYSDPTQWTAFLGLHDQSQRSAPGVQERRLKRIISHPFFNDDTLDYDIALLELEKPAEYSSMVRPISLPDASHVFPAGKAIWVTGWGHTQYGGTNALILQKGEIRVINQTTCENLLPQQITPRMMCVGFLSGGVDSCHGDSGGPLSSVEADGRIFQAGVVSWGKGCAQRNAPGVYTRLPLFRDWIKENTGV
93.4	MTSP-1 H40R/I41H/Y60gF/F97D/F99L/C122S/Q175K/Q192G/D217R/K224Q (enzyme) VVGGTDADEGEWPWQVSLHALGQGRHCGASLISPNWLVSAAHCYIDDRGFRFSDPTQWTAFLGLHDQSQRSAPGVQERRLKRIISHPFFNDDTLDYDIALLELEKPAEYSSMVRPISLPDASHVFPAGKAIWVTGWGHTQYGGTGALILQKGEIRVINQTTCENLLPQKITPRMMCVGFLSGGVDSCGGDSGGPLSSVEADGRIFQAGVVSWGRGCAQRNQPGVYTRLPLFRDWIKENTGV
346	MTSP-1 H40R/I41H/F97D/F99L/C122S/G151N/Q192N/D217L/K224R (enzyme) VVGGTDADEGEWPWQVSLHALGQGRHCGASLISPNWLVSAAHCYIDDRGFRYSDPTQWTAFLGLHDQSQRSAPGVQERRLKRIISHPFFNDDTLDYDIALLELEKPAEYSSMVRPISLPDASHVFPAGKAIWVTGWGHTQYGGTNALILQKGEIRVINQTTCENLLPQQITPRMMCVGFLSGGVDSCNGDSGGPLSSVEADGRIFQAGVVSWGLGCAQRNRPGVYTRLPLFRDWIKENTGV
1410	MTSP-1 I41R/ins97aE/F97T/T98G/F99L/C122S/G151N/Q175T/Q192E (enzyme) VVGGTDADEGEWPWQVSLHALGQGHRCGASLISPNWLVSAAHCYIDDRGFRYSDPTQWTAFLGLHDQSQRSAPGVQERRLKRIISHPFFNDTEGLDYDIALLELEKPAEYSSMVRPISLPDASHVFPAGKAIWVTGWGHTQYGGTNALILQKGEIRVINQTTCENLLPQTITPRMMCVGFLSGGVDSCEGDSGGPLSSVEADGRIFQAGVVSWGDGCAQRNKPGVYTRLPLFRDWIKENTGV
151	MTSP-1 F97M/ins97aD/T98D/F99L/C122S/Q192T (enzyme) VVGGTDADEGEWPWQVSLHALGQGHICGASLISPNWLVSAAHCYIDDRGFRYSDPTQWTAFLGLHDQSQRSAPGVQERRLKRIISHPFFNDMDDLDYDIALLELEKPAEYSSMVRPISLPDASHVFPAGKAIWVTGWGHTQYGGTGALILQKGEIRVINQTTCENLLPQQITPRMMCVGFLSGGVDSCTGDSGGPLSSVEADGRIFQAGVVSWGDGCAQRNKPGVYTRLPLFRDWIKENTGV
184	MTSP-1 F97N/ins97aT/T98Y/F99N/C122S (enzyme) VVGGTDADEGEWPWQVSLHALGQGHICGASLISPNWLVSAAHCYIDDRGFRYSDPTQWTAFLGLHDQSQRSAPGVQERRLKRIISHPFFNDNTYNDYDIALLELEKPAEYSSMVRPISLPDASHVFPAGKAIWVTGWGHTQYGGTGALILQKGEIRVINQTTCENLLPQQITPRMMCVGFLSGGVDSCQGDSGGPLSSVEADGRIFQAGVVSWGDGCAQRNKPGVYTRLPLFRDWIKENTGV
248	MTSP-1 ins97aV/F97Q/T98P/F99L/C122S/Q175F/Q192D (enzyme) VVGGTDADEGEWPWQVSLHALGQGHICGASLISPNWLVSAAHCYIDDRGFRYSDPTQWTAFLGLHDQSQRSAPGVQERRLKRIISHPFFNDQVPLDYDIALLELEKPAEYSSMVRPISLPDASHVFPAGKAIWVTGWGHTQYGGTGALILQKGEIRVINQTTCENLLPQFITPRMMCVGFLSGGVDSCDGDSGGPLSSVEADGRIFQAGVVSWGDGCAQRNKPGVYTRLPLFRDWIKENTGV
363	MTSP-1 I41R/F97T/ins97aE/T98G/F99L/C122S/G151E/Q175T/Q192E (enzyme) VVGGTDADEGEWPWQVSLHALGQGHRCGASLISPNWLVSAAHCYIDDRGFRYSDPTQWTAFLGLHDQSQRSAPGVQERRLKRIISHPFFNDTEGLDYDIALLELEKPAEYSSMVRPISLPDASHVFPAGKAIWVTGWGHTQYGGTEALILQKGEIRVINQTTCENLLPQTITPRMMCVGFLSGGVDSCEGDSGGPLSSVEADGRIFQAGVVSWGDGCAQRNKPGVYTRLPLFRDWIKENTGV
9990	MTSP-1 I41R/ins97aE/F97T/T98G/F99L/C122S/G151N/Q175T/Q192D (enzyme) VVGGTDADEGEWPWQVSLHALGQGHRCGASLISPNWLVSAAHCYIDDRGFRYSDPTQWTAFLGLHDQSQRSAPGVQERRLKRIISHPFFNDTEGLDYDIALLELEKPAEYSSMVRPISLPDASHVFPAGKAIWVTGWGHTQYGGTNALILQKGEIRVINQTTCENLLPQTITPRMMCVGFLSGGVDSCDGDSGGPLSSVEADGRIFQAGVVSWGDGCAQRNKPGVYTRLPLFRDWIKENTGV
1030	MTSP-1 I41R/F97T/ins97aE/T98G/F99L/C122S/G151N/Q175I/Q192E (enzyme) VVGGTDADEGEWPWQVSLHALGQGHRCGASLISPNWLVSAAHCYIDDRGFRYSDPTQWTAFLGLHDQSQRSAPGVQERRLKRIISHPFFNDTEGLDYDIALLELEKPAEYSSMVRPISLPDASHVFPAGKAIWVTGWGHTQYGGTNALILQKGEIRVINQTTCENLLPQIITPRMMCVGFLSGGVDSCEGDSGGPLSSVEADGRIFQAGVVSWGDGCAQRNKPGVYTRLPLFRDWIKENTGV
53.5	MTSP-1 ins97aV/F97D/T98P/F99L/C122S/Q192G (enzyme) VVGGTDADEGEWPWQVSLHALGQGHICGASLISPNWLVSAAHCYIDDRGFRYSDPTQWTAFLGLHDQSQRSAPGVQERRLKRIISHPFFNDDVPLDYDIALLELEKPAEYSSMVRPISLPDASHVFPAGKAIWVTGWGHTQYGGTGALILQKGEIRVINQTTCENLLPQQITPRMMCVGFLSGGVDSCGGDSGGPLSSVEADGRIFQAGVVSWGDGCAQRNKPGVYTRLPLFRDWIKENTGV
523	MTSP-1 I41R/ins97aE/F97T/T98G/F99L/C122S/Q175L/Q192E (enzyme) VVGGTDADEGEWPWQVSLHALGQGHRCGASLISPNWLVSAAHCYIDDRGFRYSDPTQWTAFLGLHDQSQRSAPGVQERRLKRIISHPFFNDTEGLDYDIALLELEKPAEYSSMVRPISLPDASHVFPAGKAIWVTGWGHTQYGGTGALILQKGEIRVINQTTCENLLPQLITPRMMCVGFLSGGVDSCEGDSGGPLSSVEADGRIFQAGVVSWGDGCAQRNKPGVYTRLPLFRDWIKENTGV
267	MTSP-1 I41R/F97T/ins97aE/T98G/F99L/C122S/G151N/Q175S/Q192E (enzyme) VVGGTDADEGEWPWQVSLHALGQGHRCGASLISPNWLVSAAHCYIDDRGFRYSDPTQWTAFLGLHDQSQRSAPGVQERRLKRIISHPFFNDTEGLDYDIALLELEKPAEYSSMVRPISLPDASHVFPAGKAIWVTGWGHTQYGGTNALILQKGEIRVINQTTCENLLPQSITPRMMCVGFLSGGVDSCEGDSGGPLSSVEADGRIFQAGVVSWGDGCAQRNKPGVYTRLPLFRDWIKENTGV
5000	MTSP-1 ins97aD/F97T/T98S/F99L/C122S/Q192E/D217Y/K224R (enzyme) VVGGTDADEGEWPWQVSLHALGQGHICGASLISPNWLVSAAHCYIDDRGFRYSDPTQWTAFLGLHDQSQRSAPGVQERRLKRIISHPFFNDTDSLDYDIALLELEKPAEYSSMVRPISLPDASHVFPAGKAIWVTGWGHTQYGGTGALILQKGEIRVINQTTCENLLPQQITPRMMCVGFLSGGVDSCEGDSGGPLSSVEADGRIFQAGVVSWGYGCAQRNRPGVYTRLPLFRDWIKENTGV
